T1: U-STAT1 (purified full-length unphosphorylated STAT1) (UniProt P42224 1-750)
T1 construct: also called Full-length STAT1
T1 sequence (looked up): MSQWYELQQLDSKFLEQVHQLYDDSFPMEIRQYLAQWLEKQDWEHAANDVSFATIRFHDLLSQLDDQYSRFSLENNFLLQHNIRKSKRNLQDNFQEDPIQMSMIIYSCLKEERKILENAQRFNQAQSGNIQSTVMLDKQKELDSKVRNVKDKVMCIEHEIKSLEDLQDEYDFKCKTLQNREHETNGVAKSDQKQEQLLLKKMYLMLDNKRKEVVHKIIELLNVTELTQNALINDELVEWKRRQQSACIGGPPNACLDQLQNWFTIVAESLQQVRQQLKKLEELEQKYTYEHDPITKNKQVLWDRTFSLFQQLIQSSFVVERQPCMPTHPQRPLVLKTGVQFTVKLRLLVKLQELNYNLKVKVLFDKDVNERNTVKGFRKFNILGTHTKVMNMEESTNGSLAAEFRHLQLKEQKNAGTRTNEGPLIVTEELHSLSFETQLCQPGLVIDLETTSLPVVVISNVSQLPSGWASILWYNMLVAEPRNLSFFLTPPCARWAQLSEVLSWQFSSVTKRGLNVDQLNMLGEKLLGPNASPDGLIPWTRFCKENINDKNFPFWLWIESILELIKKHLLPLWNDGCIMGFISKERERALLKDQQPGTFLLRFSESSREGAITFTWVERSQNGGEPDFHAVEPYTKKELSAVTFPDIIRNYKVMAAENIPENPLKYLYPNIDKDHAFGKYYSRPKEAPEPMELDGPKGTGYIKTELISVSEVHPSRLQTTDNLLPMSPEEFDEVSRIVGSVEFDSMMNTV

B1: GB1-018 (natural protein)
chain: MSSKGGSSGGMWSVFIHGHDGSNKGSKTYTSGGGGMWGGGSSSGVKSGVNGGVKSGTGKI

Columns and labels:
[1] = biological target: T1, U-STAT1 (purified full-length …); assay: fluorescence polarisation; conditions: both partners purified
[2] = biological target: T1, U-STAT1 (purified full-length …); assay: ITC; conditions: both partners purified

Binder	IC50 [1] [nM]	Kd [2] [nM]	stoichiometry N [2]
MWSVFIHGHDGSNKGSKTYTS (domain or fragment) [GB1-018^T2]	930	235	–
MWSVFIHGHDGSNKGSK (domain or fragment) [GB1-018^T3]	17800	> 10000	–
B1	1260	291	1.02
YDKPH (also called pYDKPH; pIFNGR 5-mer) [pIFNGR1 5-mer peptide]	–	7600	–

Reference: article doi:10.1101/2021.07.17.452491 (bioRxiv, 2021)
